Test results published in patent publication US20240189392A1 (AMBRX, published 2024).

How the values were obtained:
Experiment in all cases: cell-based or functional assay
human RXFP1 [1] = biological target: T1, human RXFP1 (human, UniProt Q9HBX9 1-757)
T1 sequence (looked up): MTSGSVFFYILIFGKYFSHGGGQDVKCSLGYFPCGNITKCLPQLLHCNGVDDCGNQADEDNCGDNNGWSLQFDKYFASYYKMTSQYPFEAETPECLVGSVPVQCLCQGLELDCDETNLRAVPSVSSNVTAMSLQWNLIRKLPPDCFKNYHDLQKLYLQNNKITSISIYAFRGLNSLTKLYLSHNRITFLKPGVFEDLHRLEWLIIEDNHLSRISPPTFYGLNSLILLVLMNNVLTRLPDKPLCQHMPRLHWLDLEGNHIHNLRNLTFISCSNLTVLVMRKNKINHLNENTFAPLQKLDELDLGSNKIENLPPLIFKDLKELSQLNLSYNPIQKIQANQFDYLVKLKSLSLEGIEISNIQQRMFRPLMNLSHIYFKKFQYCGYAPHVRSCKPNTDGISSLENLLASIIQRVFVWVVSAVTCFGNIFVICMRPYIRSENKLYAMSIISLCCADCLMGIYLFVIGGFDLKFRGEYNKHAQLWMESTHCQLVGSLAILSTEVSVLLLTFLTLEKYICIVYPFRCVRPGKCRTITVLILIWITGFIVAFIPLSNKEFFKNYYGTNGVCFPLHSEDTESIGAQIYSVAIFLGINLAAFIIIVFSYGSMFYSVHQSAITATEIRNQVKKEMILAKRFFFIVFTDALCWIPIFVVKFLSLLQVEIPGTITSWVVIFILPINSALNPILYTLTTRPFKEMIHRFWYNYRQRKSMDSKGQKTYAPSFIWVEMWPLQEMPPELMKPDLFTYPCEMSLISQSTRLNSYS

mouse RXFP1 = biological target: T2, mouse RXFP1 (mouse, UniProt Q6R6I7 1-758)
T2 sequence (looked up): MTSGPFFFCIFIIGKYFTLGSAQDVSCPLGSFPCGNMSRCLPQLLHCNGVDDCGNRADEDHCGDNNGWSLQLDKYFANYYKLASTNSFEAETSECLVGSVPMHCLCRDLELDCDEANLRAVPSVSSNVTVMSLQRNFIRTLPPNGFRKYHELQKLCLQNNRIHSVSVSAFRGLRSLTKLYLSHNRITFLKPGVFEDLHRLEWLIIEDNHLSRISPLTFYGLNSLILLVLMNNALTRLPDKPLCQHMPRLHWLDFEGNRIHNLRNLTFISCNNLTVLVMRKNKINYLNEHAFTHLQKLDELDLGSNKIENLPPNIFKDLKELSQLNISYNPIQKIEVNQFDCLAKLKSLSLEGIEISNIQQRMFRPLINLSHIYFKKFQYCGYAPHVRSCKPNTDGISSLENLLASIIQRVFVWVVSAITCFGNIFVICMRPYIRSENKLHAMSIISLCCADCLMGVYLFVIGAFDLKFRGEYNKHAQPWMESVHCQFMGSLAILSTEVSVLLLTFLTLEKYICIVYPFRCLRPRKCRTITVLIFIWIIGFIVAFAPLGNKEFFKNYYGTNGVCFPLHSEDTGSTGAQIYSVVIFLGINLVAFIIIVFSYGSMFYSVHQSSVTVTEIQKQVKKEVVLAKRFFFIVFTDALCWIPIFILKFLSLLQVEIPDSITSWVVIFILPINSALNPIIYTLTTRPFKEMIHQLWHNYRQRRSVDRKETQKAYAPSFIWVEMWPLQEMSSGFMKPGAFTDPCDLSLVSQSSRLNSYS

human RXFP1 [2] = biological target: T1, human RXFP1; remark: listed apart in the source

B1: RLX-A-AQ1-20KPEG (ligand)
chain 1: XLYSALANKCCHVGCTKRSLARFC
chain 2: ASWMEEVIKLCGRELVRAQIAICGMSTWS
modifications: pACF (para-acetylphenylalanine) at position 1 of the A chain, linked to a 20 kDA PEG via an oxime linkage
Functional Assay Raw EC50 Values [ng/mL]; cAMP increase in THP-1 cells, 11/5/2010 (human RXFP1 [1]): 38 ng/mL | Potency Ratio (RLX-A-AQ1-20KPEG/WT-RLX), cAMP assay, mouse RXFP1/CHO-K1 cells (mouse RXFP1): 22 fold | RLX-A-AQ1-20KPEG Potency Ratio (hRXFP 1-1.0), cAMP assay (mouse RXFP1): 0.66 ratio | cAMP Assay EC50 (nM), mouse RXFP1/CHO-K1 cells (mouse RXFP1): 2.1 nM | In vitro Activity Fold Loss (human RXFP1 [2]): 12 fold
